In paper PMC3557803:

Experiments:
Experiment in all cases: UV-visible absorbance assay of deamination
Format in all cases: biochemical, Martinezella rhizogenes
Conditions in all cases: 20 mM HEPES pH 7.7
[1] = substrate: Nc1nc2ncc(CO)nc2c(=O)[nH]1
[2] = substrate: Nc1nc2ncc(CNc3ccc(C(=O)N[C@@H](CCC(=O)O)C(=O)O)cc3)nc2c(=O)[nH]1
[3] = substrate: Nc1nc2ncc(C(=O)O)nc2c(=O)[nH]1
[4] = substrate: C[C@H](O)[C@H](O)C1=Nc2c(nc(N)[nH]c2=O)NC1
[5] = substrate: Nc1nc2nccnc2c(=O)[nH]1
[6] = substrate: C[C@H](O)[C@H](O)c1cnc2[nH]c(N)nc(=O)c2n1
[7] = substrate: Nc1nc2c(c(=O)[nH]1)N=C([C@H](O)[C@H](O)CO)CN2
[8] = substrate: Nc1nc2ncc([C@H](O)[C@H](O)CO)nc2c(=O)[nH]1
[9] = substrate: Nc1nc2[nH]c(=O)cnc2c(=O)[nH]1
[10] = substrate: Nc1nc2ncc(C=O)nc2c(=O)[nH]1
[11] = substrate: C[C@H](O)C(=O)C1=Nc2c(nc(N)[nH]c2=O)NC1
[12] = substrate: Nc1nc2c(c(=O)[nH]1)N=C(CO)CN2
[13] = substrate: Nc1nc2nc(C(=O)O)cnc2c(=O)[nH]1

B1: Arad3529 (Rhizobium rhizogenes K84) (protein)
chain: MSYSFMSPPNAARFVLSNATVPAVTVVGFTGPSSEGLMKADIVVADGLIKDILPAGTAPAELAKADMRDGMVWPTFADMHTHLDKGHIWERRANPDGSFMGALDAVRSDREANWSAADVRKRMEFSLRAAYAHGTSLIRTHLDSLAPQHRISFEVFSEVREAWKDKIALQAVALFPLDFMVDDAFFADLTTVVREAGGLLGGVTQMNPDIDAQLDKLIRAAAANGLDIDLHVDETEDREVLTLKAIAAAVLRNGFTGKVTAGHCCSLARQDENVAAATIDLVAKAGISIVALPMCNMYLQDRHPGRTPRWRGVTLLHELAAAGVPTAVASDNTRDPFYAYGDLDPVEVFREAVRILHLDHPLDTAARVVTTSPASILGRPDIGRIAVGGPADLVLFSARRWSEFLSRPQSDRVVLRKGKVIDRSLPDYRELDTVIGA
Question: What does the source list for B1?
Answer: Km [1]: 23 ± 3 µM; kcat [1]: 28 ± 1 s⁻¹; kcat/Km [1]: 1.2e+06 M⁻¹ s⁻¹; Km [2]: 50 ± 10 µM; kcat [2]: 6.4 ± 0.5 s⁻¹; kcat/Km [2]: 130000 M⁻¹ s⁻¹; Km [3]: 27 ± 2 µM; kcat [3]: 110 ± 3 s⁻¹; kcat/Km [3]: 4e+06 M⁻¹ s⁻¹; Km [4]: 93 ± 13 µM; kcat [4]: 0.09 ± 0.007 s⁻¹; kcat/Km [4]: 930 M⁻¹ s⁻¹; Km [5]: 39 ± 4 µM; kcat [5]: 131 ± 4 s⁻¹; kcat/Km [5]: 3.3e+06 M⁻¹ s⁻¹; Km [6]: 47 ± 9 µM; kcat [6]: 46 ± 4 s⁻¹; kcat/Km [6]: 1e+06 M⁻¹ s⁻¹; Km [7]: 200 ± 100 µM; kcat [7]: 0.036 ± 0.008 s⁻¹; kcat/Km [7]: 260 M⁻¹ s⁻¹; Km [8]: 61 ± 7 µM; kcat [8]: 19 ± 1 s⁻¹; kcat/Km [8]: 310000 M⁻¹ s⁻¹; Km [9]: 5.7 ± 0.5 µM; kcat [9]: 1.6 ± 0.1 s⁻¹; kcat/Km [9]: 280000 M⁻¹ s⁻¹; Km [10]: 12 ± 2 µM; kcat [10]: 64 ± 12 s⁻¹; kcat/Km [10]: 5.2e+06 M⁻¹ s⁻¹; Km [11]: 22 ± 9 µM; kcat [11]: 2.9 ± 0.3 s⁻¹; kcat/Km [11]: 130000 M⁻¹ s⁻¹; Km [12]: 37 ± 7 µM; kcat [12]: 1.2 ± 0.1 s⁻¹; kcat/Km [12]: 33000 M⁻¹ s⁻¹; Km [13]: 13 ± 1 µM; kcat [13]: 48 ± 2 s⁻¹; kcat/Km [13]: 3.7e+06 M⁻¹ s⁻¹
